Experimental data from the DeepSol protein solubility set.

Experiment: soluble on expression in E. coli; label from the status in PepcDB or PDB records

Sequence	soluble on expression in E. coli
MAVRPVLAVGSYLPHAPWPWGVIDQAARVLLPASTTVRAAVSLPNASAQLVRASGVLPADGTRRAVLYLHGGAFLTCGANSHGRLVELLSKFADSPVLVVDYRLIPKHSIGMALDDCHDGYRWLRLLGYEPEQIVLAGDSAGGYLALALAQRLQEVGEEPAALVAISPLLQLAKEHKQAHPNIKTDAMFPARAFDALDALVASAAARNQVDGEPEELYEPLEHITPGLPRTLIHVSGSEVLLHDAQLAAAKLAAAGVPAEVRVWPGQVHDFQVAASMLPEAIRSLRQIGEYIREATG	soluble
MSLASLPGGASTLQETYQDWTVSCQSQKDTTACVMRQEQSSAQTGQRVLTAELRNVAGGKVDGVLLMPFGLDLAKGASLKIDDTAGPNLTFSTCLPQGCLAPVSFDAKQVAALKSGTNINVTTTALSPSQPVAFKISLKGFGAALDRIQALTKEGHHHHHH	soluble
MARASGASDYRSGELSHQDERGAAHMVDITEKATTKRTAVAAGILRTSAQVVALISTGGLPKGDALATARVAGIMAAKRTSDLIPLCHQLALTGVDVDFTVGQLDIEITATVRSTDRTGVEMEALTAVSVAALTLYDMIKAVDPGALIDDIRVLHKEGGRRGTWTRR	soluble
MSLSYTTQQIIEKLRELKIVPVIALDNADDILPLADTLAKNGLSVAEITFRSEAAADAIRLLRANRPDFLIAAGTVLTAEQVVLAKSSGADFVVTPGLNPKIVKLCQDLNFPITPGVNNPMAIEIALEMGISAVKFFPAEASGGVKMIKALLGPYAQLQIMPTGGIGLHNIRDYLAIPNIVACGGSWFVEKKLIQSNNWDEIGRLVREVIDIIKEGGSHHHHHH	soluble
MSEDELIIIENLKKIYKIKNVEFPALRGINLKIYKGEFLGIAGPSGSGKTTLLDMIGLLDSPTEGKIIIDKKDVTKFDEDKRAIFRRKNIGFVFQSYNLISYLTVLENVELALAAAGYPVSKRKAKAEEILSMIPGMLELKNKKPNELSAGQQQRVAIARALANDPKILIADEPTANLDSKTGEAIVELLRKLNEEKGVTIVMATHDPMMMKYVDRLVYIRDGLIEKEVIQK	soluble
MNKHTTLPNLMQKIVSDEDLQSIIEAVGYHDTSRTFTVRTLVDFFLLAALHEWKSFRHGADVAKMYGLPTFHYSTVSKKAKEVPYEVMKRLFALVVSKCNRQTRRSLRFPKALRVVDSTTVTVGKNRLAWAPYHGERSGVKMHVAYSPEQQMPSDIVETVGLRHDGPVGEQLTDAQSVLVEDRAYFKIERIARFVEQKPPFVFG	not soluble
MSNICKTVSLRTRKIKDGHMLSYYLDYYPGYRDESTMKVIRHESLGIYIYAKPKNQMEQKYNLNLMARAEAIRCRRFEAIVNERYDFFDKEKMKGDFLAYFKKLADKKNSKWQHVYMHFRTFTQGKCTFGEINVDLCNRFREYLLTAPQGLHKNRKLHINSAANYWSTFRASIHTAYRDRKIKENPNGFLERIETIPTDKEHLSQDEVIRLASTPCSAPALKRAFLFSCLTALRKSDIKKLTWEEIQPYGSDGVMYVTTRMQKTKDIVHNPISEEALELIGYSPDKRGKVFPDFK	not soluble
MGSDKIHHHHHHMTTIPSTAEAKLEMLTTINRAIAGSRPEALPPYPVPAPLSRAEILHQFEDRILDYGAAYTHVSAAELPGAIAKALGNARRVIVPAGIPAPWLTVGMDVLRDEPPLSHAELDRADAVLTGCAVAISETGTIILDHRADQGRRALSLIPDFHICVVREDQIVQTVREGVEAVAASVREGRPLTWLSGGSATSDIELVRVEGVHGPRRLQVIVVG	soluble
SGQLLPQGAYREVPQYWKQAAELINREGAHTRTLVLPAASFARQTWGWTRDEPLQPLLQVPWVVRDAVPLVPPETIRGLDGVLSVVDKGAVDHLGDQLRRIGVGIVVIRHDLVAPHSGDATLTLMRSEFPDIKVHTFGSGKERVDVAILDRQAHGYLTDKLTRVAGGGEALSLLGPGDFILSDSDAEIVTDTPMLAARNYGAARRAISAPLATEAEGKDVGNPVRDYPSAARATRVVERGGHVVASSSAADATAFGGADPTRSITAAVDNDPDTAWFAAPGDRHPWLELQAESPDPHLELRITGKAGKVIIRSNNAHVAADMRPGVPTTIRIPGGATNRVRIEVAPGMGIASAQLIHSPITRVPTLPPAGPSAHTFLFQKVMVDTGLLTRGFETARPIEVTLSASHCERTITIDQVTYACGERFLLPAGYHELSTRSDWVRLSGDGKAGFVDLNGDSVFVTTQAANRGMRAFIGDHELTPISVNAGGQGFIVPKALATDDVLDVIRFEFAGEHTYRR	not soluble
MGSDKIHHHHHHMLIAQVTDIHLGFEPDSPDEFNRQRLDRVLAELAAMDPRPDLLLATGDLIDRGDRESYERLRDAFSNLPFPVHYALGNHDERETFSAVFPEAAFTDGFLQYIVDAGPLRIIVLDTLEEGRHGGAFCDVRARWLKARLDEAPDTRTLIVQHHPPVEVGIAWMNTDPAEPWVERLGQCLRGRTNVVGVVCGHIHRAITTAWEGTVVATCPSTAPQVALDLRPIDPDVPDQRNLIIADPPGYALHWFNGRELITHWDTAEDHQVLARYDANLQGMIQHMLAERPGAQAAE	not soluble
MGSDKIHHHHHHMTLHKICILGGTGFVGRHLAERLSQKGHAVRILTRNRERHRENLLVLPGVELIEANVHDPVALKKQLAGRDVVINLVGILNERHQGDFDRNHVELPRLVVGACNDLGIPRLLHMSALGASPTGPSAYLRSKGTGEEIVRQSNGNRAEMGRFDDLEEPMPLWSHGLKTTSFRPAVIFGEGDSFFNRFAGLLRRIPFFIPLARSKARMQPVWIEDVVSAYVQSMDDEKTYGQAYDLCGPKVYTLGELVAYTQSLIGTRRVIVPLGDFAGNLQASIMERLPGKVLTRDNLLSLSIDSVCTRNDLAESFQIEATSVESIVPGYLGGKGARAERLAEIRNRRS	not soluble
MNERIFRENTRPVQVGNLTIGGSEELTIQSMTTTKTHDVEATVAEIHRLEEVGCQIVRVACPDERAANALSAIKKRIHIPLVADIHFDYRLALKAIDAGVDKIRINPGNIGRRDRVEKVVNAAKAKNIPIRIGVNAGSLEKKIIQKYGYPTAEGMVESALAHIKILEDLDFYDIIVSLKASDVNLAIEAYDKASRAFNYPLHLGITESGTQFAGGIKSAAGLGAILSLGIGNTLRVSLSADPVEEIKVAREVLKSFGLSSNAAMLISCPTCGRIEIDLIRIANEVENYIATIKAPIKVAVLGCAVNGPGEAREADIGIAGSNGEGLLFRHGKIIRKVPEAIMVEELKKEIDILAEEYFEKKTDLESLR	not soluble
MIIIGIDEAGRGPVLGPMVVCAFAIEKEREEELKKLGVKDSKELTKNKRAYLKKLLENLGYVEKRILEAEEINQLMNSINLNDIEINAFSKVAKNLIEKLNIRDDEIEIYIDACSTNTKKFEDSFKDKIEDIIKERNLNIKIIAEHKADAKYPVVSAASIIAKAERDEIIDYYKKIYGDIGSGYPSDPKTIKFLEDYFKKHKKLPDIARTHWKTCKRILDKSKQTKLIIE	soluble
SLKVNNLIAGALNLNSKDYKKSGKKVSFDKNNLFSSIFQAESVKEDKHFILLENGEFNLDLIKSMLDGINETGERLLSEPSRQNVIFYKKVISEFISIIISSSVCLKEQKGGNLGDPKRPKYRIIKIINDKLDKLAYSVLQNQMTQIKLLDSIEEIQGLLVNLLM	soluble
MGSDKIHHHHHHMEKMLYTAASGAVRILEAQSIRANNLANAETAGFKADLERVNAVPLVAQGNSLNTRVMAQTESSGFSQQSGVINPTGRSLDLAIRDRGLFSVAVDGAEAYTRSGAIETNAEGQLTIDGRPVLGIDGPIALPEYKDVFVGEDGTVSVLPAEGGIIEEVGRLKLVNPDFALMQKGQDGLLYRRDGQAVPQDEGVLVDSGFLESSNVQAVSELIASMDLSRQFEIQVKLMKSAEKLAEAGNRLLGNV	not soluble
MSLLTSNLGYPRIGENREWKKALESFWANDTTEEQLLATMKELRLNHLRVQQEQEVDLIPVGDFTLYDHVLDMAVMFGIIPKRFLQQGDTPTLSTYFAMARGSKNAQACEMTKWYNTNYHYIVPELHDAAPRLTKNAPLEAYLEAKNELGIDGKPVILGPYSFVKLAKGYEEDKLQETIQSLLPLYIQVIQELVDAGARSIQVDEPSLVTSISAREMALVTRIYEQINEAIADAPLFLQTYFDAVTFYEEVVSLPVKGIGLDFVHGGAKNLEALRTFGFPEDKVLAAGIIDGRNIWISNLRERHELVHQLEQHVAKDRLVLQPSCSLLHVPVTTKREEKLDPTLLGVLAFANEKLTELHTLKQLAAGNEAEVKEALEANDDALAALEKSGWRSGAATSHNLENKKRPQSFNERRPLQEEKWQLPLLPTTTIGSFPQTKDVRRTRSLWRKGELSTVEYERTMKSYIEKWINIQEELGLDVLVHGEFERNDMVEFFGEKLDGFAFTANGWVQSYGSRCVKPPIIYGNVSFTEPMTVAETVYAQSLTDKPVKGMLTGPVTILNWSFVRDDLPLTVIAHQIAEALTHEVTALEEAGIEMIQIDEPAIREGLPLKAEDQQEYLDWAVSAFRASCAHVKATTQIHTHMCYSEFHEMIEAIDDLDADVISIETSRSHGEMISAFEKTTYEKGIGLGVYDIHSPRVPSEEEMLNVIRRALTVLPASLFWVNPDCGLKTRAEKETVAALKNMVAAARAAREELKTKAEGHHHHHH	soluble
MSDSDDNAYSDYLGNRRAALQKKRQPVRVCESDDSDDDFDTSGPSPMRKKTRETQLFPDDSDDDECVEVEKETYSQKVRHEIDDVEEAYRRSIYKRETVIHAPVEKNNVISGLLKICEGWDEAAKSGAQPEVEDVKDDSDADESSIAAENFPVTVVILDCESHGNDMKSRHDIFLESTFSEIRRIYATKWGCPVSCVVFSHNGKTIDTYTTPQSLGWRPMTLPHPLIEASKEAGEPAEVFTIENSPDSFTIKVLLASRRKPVQVEAAKDTTIQEILQKVIDAFVEDKEENIPSIESMKVVFDNERIKDVNITCEQLDLEDDDCIEVYF	not soluble
MGPNPMKMYPIEGNKSVQFIKPILEKLENVEVGEYSYYDSKNGETFDKQILYHYPILNDKLKIGKFCSIGPGVTIIMNGANHRMDGSTYPFNLFGNGWEKHMPKLDQLPIKGDTIIGNDVWIGKDVVIMPGVKIGDGAIVAANSVVVKDIAPYMLAGGNPANEIKQRFDQDTINQLLDIKWWNWPIDIINENIDKILDNSIIREVIWKK	soluble
MGSDKIHHHHHHMLSRTADHLFWMARYTERAENTARMLDVNYQTSLLPQSAEVAEQGWWAMLDISELTNAFDHKYGLLTRDDVIDFMVRDMTNPSSIMSCLRAARENARAVRGSLTTEVWETVNTTWLDVQRMIADGELQEDPSRFFEWVKFRSHLARGVQFGTMLKDDAFHFMRLGTFLERADNTARILDVKFQASGSDDSDPNREQNDFYHWAAVLRSVSGFEVYRKVYRAVITPQRVAELLILRPDMPRSLVSSMDEVVAILAMVCNHQSGETERQAGKLHADLKFARIDDIFAVGLHAFLTSFLERIGDIGNGISRDFLVPLQAA	not soluble
MDIGLEVENIPSVNITSLKEAPIHISSKIQPHGILLVLAEPDLKILQVTNNTLNVFGRSAEDMVQKRLVDLLDAYQLDRIKSGLSEQNLEFINPTKILVRNKGIA	not soluble
MGSDKIHHHHHHMSRILNTEIIIPIIEKLVKKACYELDDNLMCSFRKAYDKEESKIGKETIKILIDNGEYAKKEQLACCHDTGTCIVIMEIGQHVCWEGKPLKDQVNQGVRQGYENGYLRKSMVADPLERINTNDNTPAILHTEIVDGDRVTITVMPKGGGSENMGTFKTLLPGDGIDGIKDFVLETVRRVGGNPCPPYIIGIGVGGTMDHCSWMAKKALLRPLGEFNAKPLYAQLEAELLEAVNNTGIGPLGMGGRITALGVHVDYYPCHITALPVAINFQCNASRHASEII	not soluble
